In paper PMC3983052:

Biological target: AaSR-C-Full (full-length A. aegypti scavenger receptor-C with its trans-membrane region, 23-494 aa) (Aedes aegypti)
Test: flow cytometry on cells

For “purified inactivated DENV-2 virions (complex)”, the percent of AaSR-C-expressing cells bound by DENV-2 virions was > 90%.
